Experimental data published in article PMC9838878 (Science (New York, N.Y.), 2022).

Molecular target: recombinant KIT-extracellular domain-Fc fragment fusion protein (KIT-ECD-Fc) (human, UniProt P10721 26-524)
Test: MST

Sequence of recombinant KIT-extracellular domain-Fc fragment fusion protein (KIT-ECD-Fc) (P10721 26-524): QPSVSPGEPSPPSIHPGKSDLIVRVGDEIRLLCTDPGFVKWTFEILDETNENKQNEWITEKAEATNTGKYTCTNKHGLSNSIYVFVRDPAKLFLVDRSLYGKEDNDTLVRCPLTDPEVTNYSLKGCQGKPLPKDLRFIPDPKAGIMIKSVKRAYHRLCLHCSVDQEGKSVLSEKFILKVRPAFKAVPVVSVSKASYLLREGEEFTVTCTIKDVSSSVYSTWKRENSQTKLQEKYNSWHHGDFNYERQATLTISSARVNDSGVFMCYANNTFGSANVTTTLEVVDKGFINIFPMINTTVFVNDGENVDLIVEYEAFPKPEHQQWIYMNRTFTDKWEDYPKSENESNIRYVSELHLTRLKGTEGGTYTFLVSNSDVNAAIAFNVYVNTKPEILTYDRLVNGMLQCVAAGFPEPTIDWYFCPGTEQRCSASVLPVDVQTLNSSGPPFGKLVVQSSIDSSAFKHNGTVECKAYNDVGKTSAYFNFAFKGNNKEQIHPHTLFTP

B1: meteorin-like (METRNL), protein added as ligand (ligand, human, UniProt Q641Q3 46-311, looked up)
chain: QYSSDRCSWKGSGLTHEAHRKEVEQVYLRCAAGAVEWMYPTGALIVNLRPNTFSPARHLTVCIRSFTDSSGANIYLEKTGELRLLVPDGDGRPGRVQCFGLEQGGLFVEATPQQDIGRRTTGFQYELVRRHRASDLHELSAPCRPCSDTEVLLAVCTSDFAVRGSIQQVTHEPERQDSAIHLRVSRLYRQKSRVFEPVPEGDGHWQGRVRTLLECGVRPGHGDFLFTGHMHFGEARLGCAPRFKDFQRMYRDAQERGLNPCEVGTD
binding result: binds
